Experimental data as given in patent US20130065278A1 (SPIBER TECHNOLOGIES, published 2013).

T1: NT-REP4-CT
T1 construct: also called NT4RepCT; NT-REP4-CT fiber
T1 chain: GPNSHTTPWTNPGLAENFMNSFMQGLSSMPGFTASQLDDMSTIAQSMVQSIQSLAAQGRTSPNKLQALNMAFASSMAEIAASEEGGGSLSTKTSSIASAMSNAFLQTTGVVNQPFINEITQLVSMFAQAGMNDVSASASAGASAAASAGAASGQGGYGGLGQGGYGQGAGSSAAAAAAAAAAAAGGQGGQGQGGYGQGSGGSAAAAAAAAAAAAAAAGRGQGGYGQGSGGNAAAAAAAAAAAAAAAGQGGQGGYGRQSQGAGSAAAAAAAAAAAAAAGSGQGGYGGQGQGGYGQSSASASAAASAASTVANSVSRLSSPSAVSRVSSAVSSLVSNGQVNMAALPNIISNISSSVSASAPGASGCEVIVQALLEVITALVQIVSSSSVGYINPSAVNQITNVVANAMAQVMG

T2: NT2-REP4-CT
T2 construct: also called NTNT-REP4-CT; HisNTNT4RepCT
T2 chain: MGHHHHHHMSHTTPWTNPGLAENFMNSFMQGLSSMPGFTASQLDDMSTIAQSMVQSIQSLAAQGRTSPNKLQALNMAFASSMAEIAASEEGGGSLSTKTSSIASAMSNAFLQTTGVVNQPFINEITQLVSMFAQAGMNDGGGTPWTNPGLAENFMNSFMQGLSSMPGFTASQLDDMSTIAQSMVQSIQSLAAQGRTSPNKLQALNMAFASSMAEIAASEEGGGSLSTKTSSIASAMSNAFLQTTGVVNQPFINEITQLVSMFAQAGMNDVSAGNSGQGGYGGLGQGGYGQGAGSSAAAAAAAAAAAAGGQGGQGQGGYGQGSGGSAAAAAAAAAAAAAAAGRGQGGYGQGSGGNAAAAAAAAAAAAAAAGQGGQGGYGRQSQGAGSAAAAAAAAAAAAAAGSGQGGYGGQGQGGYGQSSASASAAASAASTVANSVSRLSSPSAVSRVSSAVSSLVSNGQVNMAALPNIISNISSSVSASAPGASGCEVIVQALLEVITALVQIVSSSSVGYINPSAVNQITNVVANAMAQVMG

B1: NTHis (other)
chain: MSHTTPWTNPGLAENFMNSFMQGLSSMPGFTASQLDDMSTIAQSMVQSIQSLAAQGRTSPNKLQALNMAFASSMAEIAASEEGGGSLSTKTSSIASAMSNAFLQTTGVVNQPFINEITQLVSMFAQAGMNDVSASASAGASAAASAGAAALEHHHHHH
notes: also called soluble NTHis; NT protein
B2: NT2-Brichos (other)
chain: MGHHHHHHMSHTTPWTNPGLAENFMNSFMQGLSSMPGFTASQLDDMSTIAQSMVQSIQSLAAQGRTSPNKLQALNMAFASSMAEIAASEEGGGSLSTKTSSIASAMSNAFLQTTGVVNQPFINEITQLVSMFAQAGMNDGGGTPWTNPGLAENFMNSFMQGLSSMPGFTASQLDDMSTIAQSMVQSIQSLAAQGRTSPNKLQALNMAFASSMAEIAASEEGGGSLSTKTSSIASAMSNAFLQTTGVVNQPFINEITQLVSMFAQAGMNDVSAGNSEHLVTTATFSIGSTGLVVYDYQQLLIAYKPAPGTCCYIMKIAPESIPSLEALTRKVHNFQMECSLQAKPAVPTSKLGQAEGRDAGSAPSGGDPAFLGMAVSTLCGEVPLYYI
notes: also called NT-NT-Brichos; HisNTNTBrichos

Legend:
NT-REP4-CT = target: T1, NT-REP4-CT; experiment: capture of soluble protein on fiber at pH 6, release at pH 7, SDS-PAGE; 300 mM NaCl decreased capture
Protocol: (§1) Fibers (˜0.5 cm long, ˜50 μg) of NT-REP₄-CT (SEQ ID NO 20), NT₂-REP₄-CT (SEQ ID NO 23) and REPO-CT (SEQ ID NO 2, control) were submerged in 100 μl solution of 5 mg/ml soluble NTHis (SEQ ID NO 32) or NT₂-Brichos (SEQ ID NO 34) at pH 8 for 10 minutes. The pH was decreased by addition of 400 μl sodium phosphate buffer (NaP) to pH 6 and incubated for 10 minutes to allow assembly of soluble NT to the fiber. The fibers were transferred to 500 μl of NaP at pH 6, and washed twice. Finally, the fibers were transferred to 500 μl of NaP at pH 7, and incubated 10 minutes to allow release of soluble NT. The same was done in the presence of 300 mM NaCl in all pH 6 NaP buffers. Samples from the different solutions were analysed on SDS-PAGE.

NT2-REP4-CT = target: T2, NT2-REP4-CT; experiment: as above
Protocol: as §1

| Binder | binding result (NT-REP4-CT) | binding result (NT2-REP4-CT) |
| --- | --- | --- |
| B1 | binds | binds |
| B2 | binds | binds |
